Results reported in the DeepSol protein solubility set.

test: soluble on expression in E. coli; label from the status in PepcDB or PDB records

Row | Sequence | soluble on expression in E. coli
1 | MTGTSNIPTHGKEHKDAPALLPLPAPNPHHTHAAHPGNPSHDRPPSRGKLFIKTHGCQMNEYDSAKMADVLTTTEALELTDNPEEADIILINTCSIREKAQEKVFSQLGRWRALKTSGRDVIIGVGGCVASQEGEAIVKRAPYVDLVFGPQTLHRLPDMIRARREQNRPQVDIRFPEIEKFDHLPTPRAEGPSAFVSIMEGCSKYCSFCVVPYTRGEEVSRPFEDVLTEIAHLATQGVREINLLGQNVNAYRGAMDPGPSNNTNPAPPPYADLGLLIRAIAQFESIGRIRFTTSHPLEFSDSLVEAYRDVPQLANHLHLPVQSGSDRILSAMKRGYTALEFKSKIRKLRAVRPDISISSDFIIGFPGESDTDFQKTMQLIEDIGFDQSFSFIYSRRPGTPASNLEDHTPDEIKRTRLEHLQKHINTYAADISKRMIGTVQTVLVEGPSKKNPNELTGKTENMRPVNFPGHPRLIGQFIDVHITEALSNSLRGRVHTNLEHHHHHH | soluble
2 | MGSDKIHHHHHHMRILIRADGGRDIGMGHIMRTLTLARELNKYFEVIYVCKTENEDRKTSVNGKYAKGIHKILSSGFKVKIVRENNMVEDLYEIKGDILITDSYDVNEEYFKKTSEMFHKTIYIDDMCLYDFKDVDMIINQNINADNLKYDAAGNKSLLLGCRYVMLRDEFKDLGAKIIRRKVRDVMITTGGADPFLLTLKLLYYLKQENYNFHVVVGSSFDDIYVEKLKTYEELKNINFYYNANMKELMKKCDACISAAGSTLYELCSVGVPSLSITVAENQSKAAEKFDALKIIKNLGWHNELTREKVLEEINSLSNDYNRRKNVSMTSQSIIDGMGTQRIVEKILDMV | not soluble
3 | MSLQPAPFLILDDDDVFAQTLARALTRRGFAPQIAHTGGEALSLARQTPFAYVTVDLHLAASDRGLMPHGGTDSGLHWIAPLRQALPEARMLVLTGYASIATAVQAVKLGADEYLAKPANVDSILLALQVGVSEAVAEQTMENPAPLSVARLEWEHIQRVLSEHGGNISATARALNMHRRTLQRKLGKRPVAEGHHHHHH | soluble
4 | MGSDKIHHHHHHEDPRGKLTPENFFSTQDELNMSIYALYQKVNLSQVYTNMQLPQWQGDDITTNPGSNKQPAAEMDKFAAANNNKGVKDAWNMHYAIVKAANLIIQGASKTPTTQDEINIALGQAKFWRAYAYFTLVRLWGPLPMNLDNVNDDYTKPLSPVEEVYGHIVQDLTEAEAVLPTGYSGSPRFLNGVNVYVTRQAAKSTLAAVYMAMAGWPMNKTEYYAKAAEKAKEVIEGVNRGEYEYKLDKDYKDVYAMSNNYNNETVLGINYSPFVDWAQDSELTSCNQFESLGGWGDAWGEIRFWKEFPDGPRKDATYDPKIRLKDGTLVDWWELKEDGTPVVPEHHPMFSIFSVNWDPASKVNTSAPYDYTKPASQNMCNDHRHRIIRYSEVLLWYAEAKARTGQTDELAFKCLNDVRERAGLEPLTGLSADDLAEAAYKEHGWEVAGYWVALVTRRADQFRMNRLKDTFKERAENTAVEVADGILVKESVEYTNRTWSDNLMYLPYPDMDSQKNPNLVR | not soluble
5 | MTTTDKQLLYVRTEMTIPGVGTSIHIAELEPTSTTHCTLHRILELDPSNTIRGAAHGNAVAGMAAAPERTVPHPNSYANFPDITATHLLQEEFEVLWAEAVAKFSELR | not soluble
6 | MNNLSVNGSSNGLFAKPTIGRSEYGRVKVALAPGKGFMDWLRLTTNKHLAKRVSGGVDHVELMKHNTKDDCWVHLFGIVYDVTKYLDFHPGGIPELLRGAGRDATPLFNQYHAWVNYESMLKACVVGPFIGDLTKLPSPLPPTTSDDKNKLGVPSSALFSTDPSENGYGARVETLSDNSGISFEHDDWTELTEHNTSINTRGEENTEEHARLRVLIHHFWKPAMEFEFEPTPALCHVEYTLKIMKNRVEIRFSREISGGKIDRSKCKIQRRPGVTYHTTEIIDRYRLNHDTLIFSLQLPEHTTYRIPIGHHVSIKIRKGSMGKFSWKFFLIFGYSVLYRPYTPISNPDPQKIDFMIKIYSNGICTPSLENLKIGGELEISDPIGERNFAEWTENAQELILLAAGSGITPMIDIMEKRIQKTENSNSKVYFLMFNKTENDLQTGKPEENPKSTWKMADFYSKYRGDERIVMKNVLSASECPVETGEYFNGRVSTDLLNSIISTSSTASRRAFICGPDGFILAAKTALESLNLHSDQIHIFQG | not soluble
7 | DKFNQFINRVLSHEGGYANHPKDPGGETNWGITKRTAQANGYNGSMRAMTREQAISIYRKAFWERYRADQMPEAVAFQFFDACVNHGYGNAARMLQRAAGVPDDGVIGAVSLKAINSLPENDLLLRFNAERLVFYTKLGTFTSFGKGWVRRVAQN | not soluble
8 | MGSDKIHHHHHHMEETFQLLYDTYHQDLYQFLFYMVKDKNQTEDLLQEVYIRVLNSYHTFEGRSSEKTWLLSIARHVAIDWFRKQQTIRQRILGTFDWDTQDVRDQQLLPDELAVQHENVREISCALDQCTIDQRAVIILRFIQGYSIQETAKALRFSESKVKTTQHRGLKVLRKHMELLREELMDDEVRMERRTDKGVVKSTSGS | not soluble
9 | MMARVTPDQALISFRNARILWAGHSESRKAVEQQIESLLTAMEKPADYARQLELQREHLDVLKWQINCAARECIYSQHQLMEACTEDALSNFMQANGAALTSALAPFLKGRGGVDVASRILRNALVRQLAITPPEIAGDYRMILDESGVMPDPMMVRDCQSSYTPAQQLRFQQRLDYINGMQE | soluble
10 | MSNEHTRPPLPPFTRESAIEKVRLAEDGWNTREPEKIALAYTVDTQWRNRAEFANNREEARDFLTRKWKKELDYRLIKELWAFTDNRIAVRYAYEWHDDSGNWFRSYGNENWEFEADGLMHRRFACINDMPIKESERKFHWPLGRRPDDHPGLTELGLLEHHHHHH | not soluble
11 | MKIVCSKEQLMEGINVVQKAVPTKATLTILEGILLEAYDNFKMTGNDLELGIECLIDADILEKGSIVLNSKMFGDIVRRLPDSEVLIEVKENNTVIIECDNSHFELRGMPSDSFPSLPSIEKENMIKVSQKAIRDMIRQTLFAVSTEGTRPILTGSLIECAGNEITFVSIDGFRMALRKNFNNEGFSEFSVVVPAKTLSEIGKILQPVDEDIYIYSSQNQILFEIGNCKVVSRLLEGEYLNYKSIIPPEYETSVRLRTEDLLSSLERASLITSDEKKYPVKFNIIDDKIIITSNTEIGAVREEIRVEVNGSNMEVGFNPRYFIEALRVIDDELVDIYFNSSVGPCTIRPLEGDSFAYMILPVRINK | soluble
12 | MANTPGGGALIVGIEDKTGRIIGTELDIDWLRQGIFTRIDVAPDVVAKRVLGQRVLAIYVAAAAEPIEDTSDRLRWRVGDSCRPVDLEHHHHHH | not soluble
13 | PVDFNGYWKMLSNENFEEYLRALDVNVALRKIANLLKPDKEIVQDGDHMIIRTLSTFRNYIMDFQVGKEFEEDLTGIDDRKCMTTVSWDGDKLQCVQKGEKEGRGWTQWIEGDELHLEMRAEGVTCKQVFKKVH | soluble
14 | MGSDKIHHHHHHMDDRIVVTTQQVRALIASQFPQWAALDVQPVDLSGWDNRSFRLGEDMLVRMPSAERYVAQVEKEHRWLPELGPLLPVPIPAPLALGQPGEQYPFCWSVYRWLKGEPLARYLDSIELSAIAIDVAAFLKALHGIDASAGPPAGAHNFHRGGSLAVYDGEARASAARLANEVDQALAMEIWQLALSSHWQGKGVWVHGDIAEGNLLVQDGRLSAVIDFGSSGVGDPSSDLILAWNVLDAHSRAVFRQALGLDEATWQRGRGWALWKALIVLDAERGRNEKMAEWSRRTLREIFADHLEN | not soluble
15 | MAQQHNDWADITSLDTFPKVLQHNAKHWPEQVAMREKEFGIWREFTWQDYENRVKWMALALQDLGIGEQDVVGLLGDNRPEWVWGELAAHAIKGYSLGIYQDSMHEEVAYLINYAKAKVVIAEDEEQCDKLLELGDEIPSVEYIIYCDPRGMRKYDDPRLIDVEQVYKKGQLIDKADPDKYLNMVAATKGSDLSILCTTSGTTSKPKLAQLHSGTFLDHCAAYLRADPRSPGDNYVSVLPLPWIMEQVYVVGQALISRQIVNFVEEQETMMSDLREIGPNFVLLAPRVWENIVADVSARMMDSTPFKQKMYKLGMSLANKALDQGKRSKLAEWILLRA | not soluble
